Laboratory results published in US20150284450A1 (AstraZeneca / MedImmune, published 2015).

Biological target: PcrV as expressed by live P. aeruginosa (strains 6077 and 6206) in the cytotoxicity and RBC lysis assays (Pseudomonas aeruginosa)
Assay: cell-based or functional assay

B1: anti-PcrV monoclonal antibody V2L2 (antibody, V domains shown)
VH: EMQLLESGGGLVQPGGSLRLSCAASGFTFSSYAMNWVRQAPGEGLEWVSAITISGITAYYTDSVKGRFTISRDNSKNTLYLQMNSLRAGDTAVYYCAKEEFLPGTHYYYGMDVWGQGTTVTVSS
VL: AIQMTQSPSSLSASVGDRVTITCRASQGIRNDLGWYQQKPGKAPKLVIYSASTLQSGVPSRFSGSGSGTDFTLSISSLQPDDFATYYCLQDYNYPWTFGQGTKVEIK
For B1, the “inhibition of cytotoxicity (A549 lysis by P. aeruginosa 6077, LDH release), IC50” value was 0.1 µg/mL, the “inhibition of cytotoxicity, IC50 relative to mAb166” value was 28 fold lower and the “prevention of RBC lysis (rabbit RBCs, P. aeruginosa 6077), IC50” value was 0.37 µg/mL. For the same binder, the “prevention of RBC lysis, IC50 relative to mAb166” value was 10 fold lower.
